The target in assay [1] is T1, FcγIIIA Receptor on the effector cells (human, UniProt P08637 17-254). The experiment in a line: cell-based or functional assay.
Assay [2] has as its target T2, FcγRIIIa 158V receptor (SPR assay) (UniProt P08637 17-208, limits assumed).
T2 construct: Immobilised on the SPR chip by amine coupling; The 158V allotype uses mature numbering
Put plainly: SPR, receptor immobilised. As to the method:
(§1) The method follows a direct binding assay methodology where the FcγRIIIa receptor is directly immobilized onto the flow cell on a sensor chip surface and samples are injected over the chip to assess binding. […] Independent duplicates of sample dilutions are injected over the chip, followed by surface regeneration between each cycle. The binding is measured in response units (RU). The kinetics of the binding reaction is determined by measuring changes in SPR due to the increase in mass in the close proximity to the biosensor chip surface. Change in the mass of the complex as a function of time is visualized as a sensorgram.
(§2) The equilibrium dissociation constants (K_D) of each sample is determined for each receptor.
For orientation: Surface plasmon resonance follows binding to a sensor surface in real time, without labels.

For assay [3], the target named is T3, FcγRIIIa 158F receptor (SPR assay) (UniProt P08637 17-208, limits assumed).
T3 construct: Immobilised on the SPR chip by amine coupling
The experiment in a line: SPR, receptor immobilised. The procedure:
as §1, §2

Assay [4] concerns the target T1, FcγIIIA Receptor on the effector cells. Put plainly: cell-based or functional assay. This is another data set of the same source.
For assay [5], the target named is T4, FcRn (human Fc receptor panel, Octet) (human, UniProt P55899 24-297; P61769 21-119).
T4 construct: Captured on anti-penta-His biosensors, so it carries a His tag
Put plainly: BLI (Octet HTX), receptor on anti-penta-His biosensor, 1:1 model. As to the method: (§3) This analysis was performed by LakePharma. Binding characterization were carried out on Octet HTX instrument at 25° C. Human Fc receptor panel were loaded onto Anti-Penta His (H1S1K) biosensors. Loaded sensors were dipped into a serial dilutions of the testing samples (300 nM start, 1:3 dilution, 7 points). Kinetic constants were calculated using a monovalent (1:1) binding model.
On the technique in general: In BLI a coated tip is dipped into the sample, and binding shifts an interference pattern.

Assay [6] deals with T5, FcγRIIB/C (human Fc receptor panel, Octet) (human, UniProt P31994 46-217, limits assumed).
T5 construct: Captured on anti-penta-His biosensors, so it carries a His tag
T5 sequence (looked up): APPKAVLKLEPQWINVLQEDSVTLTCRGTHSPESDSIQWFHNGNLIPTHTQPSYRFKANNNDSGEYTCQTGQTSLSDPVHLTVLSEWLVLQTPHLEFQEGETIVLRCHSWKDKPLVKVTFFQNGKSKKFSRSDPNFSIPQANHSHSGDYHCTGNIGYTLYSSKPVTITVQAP
The description is as above. The procedure:
as §3

For assay [7], the target named is T6, FcγRIIIA F158 (human Fc receptor panel, Octet) (human, UniProt P08637 17-208).
T6 construct: Captured on anti-penta-His biosensors, so it carries a His tag; It is kept apart from the SPR receptor because the constructs may differ
The description is as above. The procedure: as §3

Assay [8] has as its target T7, FcγRIIA (human Fc receptor panel, Octet) (human, UniProt P12318 36-218, limits assumed).
T7 construct: Captured on anti-penta-His biosensors, so it carries a His tag
T7 sequence (looked up): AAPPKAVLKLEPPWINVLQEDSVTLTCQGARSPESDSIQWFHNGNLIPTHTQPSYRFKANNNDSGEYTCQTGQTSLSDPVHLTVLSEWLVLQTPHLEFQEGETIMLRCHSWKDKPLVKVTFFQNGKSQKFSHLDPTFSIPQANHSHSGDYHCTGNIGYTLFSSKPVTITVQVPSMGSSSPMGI
Described as above. As to the method: as §3

Assay [9] has as its target T8, FcγRI (human Fc receptor panel, Octet) (human, UniProt P12314 16-288, limits assumed).
T8 construct: Captured on anti-penta-His biosensors, so it carries a His tag
The description is as above. The procedure:
as §3

The target in assay [10] is T9, FcγRIIIA V158 (human Fc receptor panel, Octet) (human, UniProt P08637 17-208).
T9 construct: Captured on anti-penta-His biosensors, so it carries a His tag; It is kept apart from the SPR receptor because the constructs may differ; also called FcγRIIIa 158V
The description is as above. The procedure: as §3

In assay [11] the target is T10, FcγRIIIB (human Fc receptor panel, Octet) (human, UniProt O75015 17-200).
T10 construct: Captured on anti-penta-His biosensors, so it carries a His tag
The assay is described as above. As to the method: as §3

The target of assay [12] is T11, CD20 on Jeko-1, Raji and Daudi cells (human, UniProt P11836 1-297).
T11 construct: whole, on cells; also called cell surface CD20
T11 sequence (looked up): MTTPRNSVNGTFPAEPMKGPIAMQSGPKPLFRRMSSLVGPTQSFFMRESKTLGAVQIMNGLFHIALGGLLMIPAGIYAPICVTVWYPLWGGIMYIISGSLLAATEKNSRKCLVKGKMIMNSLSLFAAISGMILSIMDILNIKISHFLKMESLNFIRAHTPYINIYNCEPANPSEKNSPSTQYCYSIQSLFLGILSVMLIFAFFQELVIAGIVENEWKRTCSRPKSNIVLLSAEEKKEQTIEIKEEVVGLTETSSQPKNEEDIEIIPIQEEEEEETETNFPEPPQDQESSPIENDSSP
The experiment in a line: flow cytometry (FACS) on Raji cells, PE conjugated anti-human secondary antibody. The procedure: (§4) A six-point dilution series of the samples, in duplicates and in the concentration range of 40 μg/ml-0 ug/ml with a dilution factor of 5 were used. Cells were incubated with sample dilutions; binding was detected using a PE conjugated anti-human secondary antibody.

Assay [13] addresses T1, FcγIIIA Receptor on the effector cells. Put plainly: cell-based or functional assay. The source holds these as a separate data set.
For assay [14], the target named is T12, HRP conjugated human C1q (human, UniProt P02745 23-245; P02746 28-253; P02747 29-245, peroxidase (HRP) conjugated; site not stated).
T12 construct: also called Peroxidase conjugated C1q
Put plainly: ELISA: antibody dilutions coated on the plate, HRP conjugated human C1q added, TMB, OD 450. The procedure:
(§5) The C1q binding assay used for this analysis is an ELISA assay. Samples were coated on ELISA plates, HRP conjugated human C1q is incubated with samples on the plate. The bound HRP, in the presence of substrate TMB, generates a colorimetric signal. […] Sample dilutions are coated onto ELISA plates, and the plates incubated for 1 hour±30 min at room temperature. After coating, the plates are washed, blocked, and washed again. Peroxidase conjugated C1q was added, and the plates incubated for 1.5 hours±30 minutes at room temperature. After incubation and washing, a tetramethylbenzidine (TMB) substrate solution was added and plates incubated at room temperature for 7 minutes (~1 min/+30 seconds). This produces a colorimetric reaction which is proportional to the level of C1q bound. The reaction is stopped with the addition of 1M sulfuric acid and the color is measured at 450 nm using a Molecular Devices SPECTRAMAX® microplate reader. SOFTMAX® PRO is used to analyze the data with weighted nonlinear regression using a 4-parameter logistic fit. […] EC50 of each test sample, based on the 4-parameter logistic fitted curve, were generated for additional information.
(In general: ELISA stands for enzyme-linked immunosorbent assay.)

The target of assay [15] is C1q in the complement system (rabbit serum as the source of complement) (rabbit). Put plainly: cell-based or functional assay.
Assay [16] has as its target T12, HRP conjugated human C1q. The experiment in a line: ELISA, antibody coated on the plate, HRP conjugated human C1q. As to the method:
as §5

For assay [17], the target named is T11, CD20 on Jeko-1, Raji and Daudi cells. Put plainly: flow cytometry (FACS) on Daudi cells, PE conjugated anti-human secondary antibody; Daudi cells. As to the method:
as §4

For assay [18] the target is unchanged. Put plainly: cell-based MSD electrochemiluminescence binding assay on CD20 expressing Jeko-1 cells.
Assay [19] deals with T2, FcγRIIIa 158V receptor (SPR assay). The experiment in a line: SPR, receptor amine-coupled to the chip, antibody injected, 1:1 kinetics; average of 4 values. As to the method:
as §1, §2

The target of assay [20] is T3, FcγRIIIa 158F receptor (SPR assay). The experiment in a line: SPR, receptor amine-coupled to the chip, antibody injected, steady state affinity; average of 4 values. As to the method:
as §1, §2

T1 sequence (P08637 17-254): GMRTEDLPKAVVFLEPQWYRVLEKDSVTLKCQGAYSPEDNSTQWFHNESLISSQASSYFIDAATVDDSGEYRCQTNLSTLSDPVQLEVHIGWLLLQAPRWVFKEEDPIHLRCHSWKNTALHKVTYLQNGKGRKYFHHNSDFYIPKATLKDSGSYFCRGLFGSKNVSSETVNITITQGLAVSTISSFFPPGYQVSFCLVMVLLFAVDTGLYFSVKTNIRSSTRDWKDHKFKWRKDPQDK
T3 sequence (P08637 17-208 limits assumed): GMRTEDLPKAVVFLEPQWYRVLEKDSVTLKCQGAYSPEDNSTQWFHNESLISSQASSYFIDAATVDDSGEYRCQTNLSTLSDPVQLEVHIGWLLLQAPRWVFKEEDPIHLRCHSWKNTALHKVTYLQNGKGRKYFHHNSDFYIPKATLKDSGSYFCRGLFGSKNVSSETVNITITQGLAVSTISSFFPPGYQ
T12 sequence (P02745 23-245 limits assumed, chain 1 of 3): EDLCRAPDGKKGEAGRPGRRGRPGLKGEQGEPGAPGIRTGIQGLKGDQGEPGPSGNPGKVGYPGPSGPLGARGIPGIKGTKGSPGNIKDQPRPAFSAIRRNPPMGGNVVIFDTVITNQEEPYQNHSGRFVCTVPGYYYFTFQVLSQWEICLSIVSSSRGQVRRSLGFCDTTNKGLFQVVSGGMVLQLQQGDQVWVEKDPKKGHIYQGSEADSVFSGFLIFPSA
T12 sequence (P02746 28-253 limits assumed, chain 2 of 3): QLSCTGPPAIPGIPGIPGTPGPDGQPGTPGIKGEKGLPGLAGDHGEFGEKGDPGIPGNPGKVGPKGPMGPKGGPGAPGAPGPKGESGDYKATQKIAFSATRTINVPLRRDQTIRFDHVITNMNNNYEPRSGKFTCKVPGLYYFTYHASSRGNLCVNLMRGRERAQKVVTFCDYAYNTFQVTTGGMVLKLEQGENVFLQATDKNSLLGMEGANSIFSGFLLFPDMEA
T12 sequence (P02747 29-245 limits assumed, chain 3 of 3): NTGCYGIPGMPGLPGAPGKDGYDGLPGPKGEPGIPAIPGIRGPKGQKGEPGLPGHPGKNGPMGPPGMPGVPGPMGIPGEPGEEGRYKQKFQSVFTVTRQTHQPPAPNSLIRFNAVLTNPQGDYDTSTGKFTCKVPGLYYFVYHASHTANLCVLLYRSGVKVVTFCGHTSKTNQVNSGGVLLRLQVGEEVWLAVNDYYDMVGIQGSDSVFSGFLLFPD
T2 sequence (P08637 17-208 F176V limits assumed): as the sequence (P08637 17-208 limits assumed) above, with F160V counted along it
T8 sequence (P12314 16-288 limits assumed): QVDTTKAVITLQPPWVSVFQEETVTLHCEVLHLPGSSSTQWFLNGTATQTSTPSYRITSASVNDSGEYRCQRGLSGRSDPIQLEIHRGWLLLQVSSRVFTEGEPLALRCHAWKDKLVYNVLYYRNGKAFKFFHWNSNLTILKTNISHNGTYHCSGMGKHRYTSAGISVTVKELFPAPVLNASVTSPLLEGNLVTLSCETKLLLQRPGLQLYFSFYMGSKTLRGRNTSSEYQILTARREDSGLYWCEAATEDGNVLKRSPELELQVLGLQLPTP
T4 sequence (P55899 24-297 limits assumed, chain 1 of 2): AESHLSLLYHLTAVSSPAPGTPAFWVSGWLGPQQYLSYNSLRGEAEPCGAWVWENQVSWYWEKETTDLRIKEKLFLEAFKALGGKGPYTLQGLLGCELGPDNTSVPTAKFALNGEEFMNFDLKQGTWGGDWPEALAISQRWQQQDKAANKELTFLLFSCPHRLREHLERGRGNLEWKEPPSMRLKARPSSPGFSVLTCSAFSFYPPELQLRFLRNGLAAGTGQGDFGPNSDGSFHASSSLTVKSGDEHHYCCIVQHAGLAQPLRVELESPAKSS
T4 sequence (P61769 21-119 limits assumed, chain 2 of 2): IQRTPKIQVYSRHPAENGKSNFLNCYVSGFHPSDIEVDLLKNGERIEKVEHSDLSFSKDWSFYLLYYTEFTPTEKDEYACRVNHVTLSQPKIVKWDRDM
T6 sequence (P08637 17-208 limits assumed): as the sequence (P08637 17-208 limits assumed) above
T10 sequence (O75015 17-200 limits assumed): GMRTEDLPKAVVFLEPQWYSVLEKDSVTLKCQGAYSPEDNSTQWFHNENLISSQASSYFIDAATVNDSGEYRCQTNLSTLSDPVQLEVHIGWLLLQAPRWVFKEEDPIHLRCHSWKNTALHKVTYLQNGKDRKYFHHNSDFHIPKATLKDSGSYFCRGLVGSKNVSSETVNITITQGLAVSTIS
T9 sequence (P08637 17-208 F176V limits assumed): as the sequence (P08637 17-208 limits assumed) above, with F160V counted along it

B1: TG-1101 (TG Therapeutics, Inc.) (antibody, human IgG1, kappa)
heavy: not shown
light: QIVLSQSPAILSASPGEKVTMTCRASSSVSYMHWYQQKPGSSPKPWIYATSNLASGVPARFSGSGSGTSYSFTISRVEAEDAATYYCQQWTFNPPTFGGGTRLEIKRTVAAPSVFIFPPSDEQLKSGTASVVCLLNNFYPREAKVQWKVDNALQSGNSQESVTEQDSKDSTYSLSSTLTLSKADYEKHKVYACEVTHQGLSSPVTKSFNRGEC
notes: Chimeric IgG1 made in YB2/0 rat hybridoma cells, with low-fucose N-glycans; also called ublituximab; Ubli
As usually defined, the Kd is the free concentration of one partner at which half of the binding sites on the other are occupied at equilibrium, for simple one-to-one binding. A lower Kd goes with a tighter complex. What is called EC50 is the concentration giving half of the maximal effect. One may read the EC50 (read off the curve) as the concentration that produces a half-maximal response. The low end stands for higher potency in that assay, the high end for lower potency in that assay. As to B1, the “ADCC EC50, fold lower than OCREVUS” value in assay [1] was roughly 25 fold. For the same molecule, the results for the “fold higher affinity than OCREVUS” value in assay [2] and in assay [3] were roughly 15 fold and roughly 10 fold, respectively. Besides, the “ADCC EC50 (Raji target cells, KILR CD16a effector cells)” value in assay [4] came out at 0.00242 ng/mL. Also, the Kd in [5] stood at 0.042 µM; in [6], 0.158 µM; in assay [7], 0.056 µM; in [8] it was 0.092 µM; in [9], 0.02 µM; in assay [10], 0.023 µM. In addition, the values for the Kd in assay [11], in [19] and in [20] were 0.169 µM, 0.0641 µM and 0.68 µM, respectively. Besides, the EC50 stood at 0.00202 ng/mL in [12], 2600 ng/mL with HRP conjugated human C1q [16], 983 ng/mL in assay [17] and 63 ng/mL in assay [18]. For the same molecule, the “EC50 of ADCC assay Using Primary NK Cells (Raji target cells, LDH release)” value in assay [13] was determined as 49000 ng/mL. For the same molecule, the “EC50 (read off the curve)” value with HRP conjugated human C1q [14] is roughly 3000 ng/mL. The “CDC EC50 (Jeko-1 cells, rabbit serum complement)” value in assay [15] was found to be 670 ng/mL.
